{"source": "paper PMC7181697", "about": "“Molecular basis for assembly of the shieldin complex and its implications for NHEJ” (Nature Communications, 2020)", "settings_in_all_cases": "both partners purified", "key": {"[1]": {"target": "T1, REV7 (full length, wild type) (human, UniProt Q9UI95 1-211)", "T1 construct": "REV7 (MAD2B, MAD2L2), human, full length; Two copies (closed C-REV7 and open O-REV7) stand in the crystal structure 6KTO; also called REV7^WT; MAD2B; source: E. coli BL21(DE3), purified (Ni-IDA, SEC); alone or co-expressed with SHLD3 and SHLD2 truncations", "assay": "ITC; ITC200, 25 °C, 20 mM Tris pH 8.0, 150 mM NaCl, 1% glycerol, 1 mM TCEP; one set of sites model"}, "REV7^Y63A": {"target": "T2, REV7^Y63A (human, UniProt Q9UI95 1-211, Y63A)", "T2 construct": "REV7 (MAD2B, MAD2L2), human, full length; source: E. coli BL21(DE3), purified (Ni-IDA, SEC); alone or co-expressed with SHLD3(1-82)", "T2 sequence (Q9UI95 whole entry Y63A)": "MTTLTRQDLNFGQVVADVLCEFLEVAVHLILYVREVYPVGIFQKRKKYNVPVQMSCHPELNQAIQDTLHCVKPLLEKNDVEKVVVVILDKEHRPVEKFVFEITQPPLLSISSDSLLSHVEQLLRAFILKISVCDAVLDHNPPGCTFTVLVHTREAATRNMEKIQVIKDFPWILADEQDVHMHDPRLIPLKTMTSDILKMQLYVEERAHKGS", "assay": "ITC; ITC200, 25 °C, 20 mM Tris pH 8.0, 150 mM NaCl, 1% glycerol, 1 mM TCEP; one set of sites model"}, "REV7^W171A": {"target": "T3, REV7^W171A (human, UniProt Q9UI95 1-211, W171A)", "T3 construct": "REV7 (MAD2B, MAD2L2), human, full length; source: E. coli BL21(DE3), purified (Ni-IDA, SEC); alone or co-expressed with SHLD3(1-82)", "T3 sequence (Q9UI95 whole entry W171A)": "as the sequence (Q9UI95 whole entry Y63A) above, with A63Y, W171A counted along it", "assay": "ITC; ITC200, 25 °C, 20 mM Tris pH 8.0, 150 mM NaCl, 1% glycerol, 1 mM TCEP; one set of sites model"}, "[2]": {"target": "T4, REV7^K44A-SHLD3(1–82)^F38A (human, UniProt Q9UI95 1-211; Q6ZNX1 1-82, K44A | F38A)", "T4 construct": "REV7 (MAD2B, MAD2L2), human, full length; SHLD3, human, residues 1-82; cloned without His-tag; source: E. coli BL21(DE3), co-expressed (pETduet), purified (Ni-IDA, SEC)", "T4 sequence (Q9UI95 whole entry K44A, the tested form may be a part, one chain of several)": "as the sequence (Q9UI95 whole entry Y63A) above, with K44A, A63Y counted along it", "assay": "ITC; ITC200, 25 °C, 20 mM Tris pH 8.0, 150 mM NaCl, 1% glycerol, 1 mM TCEP; one set of sites model"}, "REV7^K44A-SHLD3(45–82)": {"target": "T5, REV7^K44A-SHLD3(45–82) (human, UniProt Q9UI95 1-211; Q6ZNX1 45-82, K44A)", "T5 construct": "REV7 (MAD2B, MAD2L2), human, full length; SHLD3, human, residues 45-82; cloned without His-tag; source: E. coli BL21(DE3), co-expressed (pETduet), purified (Ni-IDA, SEC)", "T5 sequence (Q9UI95 whole entry K44A, the tested form may be a part, one chain of several)": "as the sequence (Q9UI95 whole entry Y63A) above, with K44A, A63Y counted along it", "assay": "ITC; ITC200, 25 °C, 20 mM Tris pH 8.0, 150 mM NaCl, 1% glycerol, 1 mM TCEP; one set of sites model"}, "[3]": {"target": "T6, REV7^K44A-SHLD3(1–82)^FIPWFP/AIAAAA (human, UniProt Q9UI95 1-211; Q6ZNX1 1-82, K44A | FIPWFP/AIAAAA)", "T6 construct": "REV7 (MAD2B, MAD2L2), human, full length; SHLD3, human, residues 1-82; the FXPWFP motif stands at 38-43; cloned without His-tag; also called REV7^K44A-SHLD3(1–82)^5A; source: E. coli BL21(DE3), co-expressed (pETduet), purified (Ni-IDA, SEC)", "T6 sequence (Q9UI95 whole entry K44A, the tested form may be a part, one chain of several)": "as the sequence (Q9UI95 whole entry Y63A) above, with K44A, A63Y counted along it", "assay": "ITC; ITC200, 25 °C, 20 mM Tris pH 8.0, 150 mM NaCl, 1% glycerol, 1 mM TCEP; one set of sites model"}, "[4]": {"target": "T7, REV7^E35A-SHLD3(1–82)-REV7^K129A (human, UniProt Q9UI95 1-211; Q6ZNX1 1-82; Q9UI95 1-211, E35A | K129A)", "T7 construct": "REV7 (MAD2B, MAD2L2), human, full length; the C-REV7 of the dimer; SHLD3, human, residues 1-82; cloned without His-tag; the O-REV7 of the dimer; also called E35A-1–82 + K129A; reconstituted conformational dimer; source: reconstituted from purified REV7^E35A-SHLD3(1–82) and purified REV7^K129A (both E. coli BL21(DE3)); copies: + +", "T7 sequence (Q9UI95 whole entry E35A, chain 1 of 2, the tested form may be a part)": "as the sequence (Q9UI95 whole entry Y63A) above, with E35A, A63Y counted along it", "T7 sequence (Q9UI95 whole entry K129A, chain 3 of 2, the tested form may be a part)": "as the sequence (Q9UI95 whole entry Y63A) above, with A63Y, K129A counted along it", "assay": "ITC; ITC200, 25 °C, 20 mM Tris pH 8.0, 150 mM NaCl, 1% glycerol, 1 mM TCEP; one set of sites model"}, "REV7^K129A": {"target": "T8, REV7^K129A (human, UniProt Q9UI95 1-211, K129A)", "T8 construct": "REV7 (MAD2B, MAD2L2), human, full length; also called O-REV7 (as used in the ITC and SEC experiments); source: E. coli BL21(DE3), purified (Ni-IDA, SEC); alone or co-expressed with SHLD3(1-82)", "T8 sequence (Q9UI95 whole entry K129A)": "as the sequence (Q9UI95 whole entry Y63A) above, with A63Y, K129A counted along it", "assay": "ITC; ITC200, 25 °C, 20 mM Tris pH 8.0, 150 mM NaCl, 1% glycerol, 1 mM TCEP; one set of sites model"}, "MBP-REV7^K129A": {"target": "T9, MBP-REV7^K129A (human, UniProt Q9UI95 1-211, K129A)", "T9 construct": "REV7 (MAD2B, MAD2L2), human; The cloning of this construct is not described in the methods; also called O-REV7; source: E. coli BL21(DE3), purified (Ni-IDA, SEC)", "T9 sequence (Q9UI95 whole entry K129A)": "as the sequence (Q9UI95 whole entry Y63A) above, with A63Y, K129A counted along it", "assay": "SEC; Superdex 200 Increase 10/300 GL, 20 mM Tris/HCl pH 8.0, 150 mM NaCl, 1% glycerol, 1 mM TCEP; proteins mixed and incubated 10 min on ice; 0.5 ml fractions on SDS-PAGE, Coomassie"}, "[5]": {"target": "T7, REV7^E35A-SHLD3(1–82)-REV7^K129A", "assay": "SEC; Superdex 200 Increase 10/300 GL, 20 mM Tris/HCl pH 8.0, 150 mM NaCl, 1% glycerol, 1 mM TCEP; proteins mixed and incubated 10 min on ice; 0.5 ml fractions on SDS-PAGE, Coomassie"}, "[6]": {"target": "T10, REV7^K44A-SHLD3(1–82)-REV7^K129A (human, UniProt Q9UI95 1-211; Q6ZNX1 1-82; Q9UI95 1-211, K44A | K129A)", "T10 construct": "REV7 (MAD2B, MAD2L2), human, full length; the C-REV7 of the dimer; SHLD3, human, residues 1-82; cloned without His-tag; the O-REV7 of the dimer; also called K44A-1–82 + K129A; reconstituted conformational dimer; source: reconstituted from purified REV7^K44A-SHLD3(1–82) and purified REV7^K129A (both E. coli BL21(DE3)); copies: + +", "T10 sequence (Q9UI95 whole entry K44A, chain 1 of 2, the tested form may be a part)": "as the sequence (Q9UI95 whole entry Y63A) above, with K44A, A63Y counted along it", "T10 sequence (Q9UI95 whole entry K129A, chain 3 of 2, the tested form may be a part)": "as the sequence (Q9UI95 whole entry Y63A) above, with A63Y, K129A counted along it", "assay": "SEC; Superdex 200 Increase 10/300 GL, 20 mM Tris/HCl pH 8.0, 150 mM NaCl, 1% glycerol, 1 mM TCEP; proteins mixed and incubated 10 min on ice; 0.5 ml fractions on SDS-PAGE, Coomassie"}}, "data": [{"binder": "SHLD3(1–82) with C-terminal His6-tag (domain or fragment, human, UniProt Q6ZNX1 1-82, looked up, SHLD3, human, residues 1-82; SHLD3(1-82) expressed alone for biochemical studies (pET28a(+)); source: E. coli BL21(DE3), purified (Ni-IDA, SEC)) MTTEVILHYRPCESDPTQLPKIAEKAIQDFPTRPLSRFIPWFPYDGSKLPLRPKRSPPVISEEAAEDVKQYLTISEHDAKSH", "values": [{"measurement": "Kd", "setting": "[1]", "result": "~130", "unit": "nM"}, {"measurement": "Kd", "setting": "REV7^Y63A", "result": "~200", "unit": "nM"}, {"measurement": "Kd", "setting": "REV7^W171A", "result": "~200", "unit": "nM"}]}, {"binder": "cREV1 CTD (chimeric REV1 CTD: POL κ RIR fused to the N-terminus of REV1 CTD) (other, UniProt Q9UBT6 562-577, looked up, source: E. coli BL21(DE3), purified (Ni-IDA, SEC)) SHKKSFFDKKRSERKWGLSSLQSDPAGCVRPPAPNLAGAVEFNDVKTLLREWITTISDPMEEDILQVVKYCTDLIEEKDLEKLDLVIKYMKRLMQQSVESVWNMAFDFILDNVQVVLQQTYGSTLKVT", "values": [{"measurement": "Kd", "setting": "[2]", "result": 6500, "unit": "nM"}, {"measurement": "Kd", "setting": "REV7^K44A-SHLD3(45–82)", "result": 1400, "unit": "nM"}, {"measurement": "Kd", "setting": "[3]", "result": 1100, "unit": "nM"}]}, {"binder": "REV3(1847-1906) (domain or fragment, human, UniProt O60673 1847-1906, looked up, amplified from cDNA of Jurkat cells; The methods name two vectors for REV3 truncations (His6-MBP and C-terminal His6); also called RBM1 of REV3; source: E. coli BL21(DE3), purified (Ni-IDA, SEC)) MLTPTPDSSPRSTSSPSQSKNGSFTPRTANILKPLMSPPSREEIMATLLDHDLSETIYQE", "values": [{"measurement": "Kd", "setting": "[4]", "result": 46, "unit": "nM"}, {"measurement": "binding result", "setting": "REV7^K129A", "result": "binds"}]}, {"binder": "MBP-REV3(1847-1906) (domain or fragment, human, UniProt O60673 1847-1906, looked up, Modified pET28a(+) with His6-MBP tag; source: E. coli BL21(DE3), purified (Ni-IDA, SEC)) MLTPTPDSSPRSTSSPSQSKNGSFTPRTANILKPLMSPPSREEIMATLLDHDLSETIYQE", "values": [{"measurement": "binding result", "setting": "MBP-REV7^K129A", "result": "binds"}]}, {"binder": "MBP-SHLD2(1–60) (domain or fragment, human, UniProt Q86V20 1-60, looked up, SHLD2, human, residues 1-60; Modified pET28a(+) with His6-MBP tag; also called MBP-1–60; source: E. coli BL21(DE3), purified (Ni-IDA, SEC); not shown: MBP, N-terminal, kept) MSGGSQVHIFWGAPIAPLKITVSEDTASLMSVADPWKKIQLLYSQHSLYLKDEKQHKNLE", "values": [{"measurement": "binding result", "setting": "[5]", "result": "binds"}, {"measurement": "binding result", "setting": "[6]", "result": "binds"}]}]}
